Series [1] can be described thus: Tissue distribution in mice with no tumors. The format is in vivo, mouse. The note with it: tail vein injection.
The subject of series [2] is MDA-MB-435 cells. Briefly: Cy3-labeled oligonucleotide delivery, confocal immunofluorescence. Conditions: Cy3-labeled oligonucleotide 50 pmol, 1 h at 37° C. The series is classed as cell-based, human. As to the method: HerPBK10 transports a labeled oligonucleotide in MDA-MB-435 cells. To determine whether HerPBK10 can mediate single-stranded oligonucleotide delivery, a Cy3-labeled oligonucleotide (50 pmol) was incubated with HerPBK10 (5 μg) or Lipofectamine 2000 (Invitrogen, Carlsbad, CA, USA), a commercial transfection reagent as a comparative control, in 0.1 M HEPES/Optimem I (Invitrogen; Carlsbad, CA, USA) for 20 minutes at RT. The resulting mixture was added to MDA-MB-435 cells, which express HER, and incubated for 1 h at 37° C. Cells were fixed in 4% PFA for 15′ at RT and processed for immunofluorescence against HerPBK10. Cells were counterstained with DAPI to identify nuclei. Images were acquired using a Leica SP2 laser scanning confocal microscope.

In series [3] the target is T1, HER3 (human ErbB3 extracellular domain) (Homo sapiens, UniProt P21860).
T1 construct: an immobilized peptide containing the extracellular domain of human HER3; purchased Prospec
T1 sequence (P21860 20-643 limits assumed): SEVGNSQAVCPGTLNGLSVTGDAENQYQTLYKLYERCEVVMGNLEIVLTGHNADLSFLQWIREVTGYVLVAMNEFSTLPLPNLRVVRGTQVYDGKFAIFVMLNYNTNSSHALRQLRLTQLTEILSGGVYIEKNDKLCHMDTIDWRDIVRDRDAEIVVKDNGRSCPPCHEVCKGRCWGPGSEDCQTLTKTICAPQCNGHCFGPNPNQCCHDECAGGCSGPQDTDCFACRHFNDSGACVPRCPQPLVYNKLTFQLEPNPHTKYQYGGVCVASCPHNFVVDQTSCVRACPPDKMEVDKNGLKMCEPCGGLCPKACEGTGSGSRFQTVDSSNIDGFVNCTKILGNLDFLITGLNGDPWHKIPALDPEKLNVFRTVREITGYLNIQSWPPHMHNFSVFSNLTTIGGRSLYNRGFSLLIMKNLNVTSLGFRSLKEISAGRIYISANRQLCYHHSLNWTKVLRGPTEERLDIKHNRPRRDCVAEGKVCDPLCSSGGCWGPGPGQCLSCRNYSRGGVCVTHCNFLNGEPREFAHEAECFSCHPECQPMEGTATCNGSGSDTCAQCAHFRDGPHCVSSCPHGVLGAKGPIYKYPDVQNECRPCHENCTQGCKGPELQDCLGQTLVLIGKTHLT
Briefly: ELISA of HerPBK10 binding to immobilized HER3. From the text: (§1) FIGS. 12A-12C is a group of graphs showing HerPBK10 binds to HER3 and is not inhibited by patient serum. […] Un: no HerPBK10. […] Control samples were bound in bovine serum and receptor-binding verified by competitive inhibition with recombinant heregulin ligand (+Her). N=3. *, p<0.05 compared to control (−Her: no competitive inhibitor).

For series [4], the target named is T2, HER3 (Homo sapiens, UniProt P21860).
T2 construct: endogenous in cells
T2 sequence (P21860 20-1342): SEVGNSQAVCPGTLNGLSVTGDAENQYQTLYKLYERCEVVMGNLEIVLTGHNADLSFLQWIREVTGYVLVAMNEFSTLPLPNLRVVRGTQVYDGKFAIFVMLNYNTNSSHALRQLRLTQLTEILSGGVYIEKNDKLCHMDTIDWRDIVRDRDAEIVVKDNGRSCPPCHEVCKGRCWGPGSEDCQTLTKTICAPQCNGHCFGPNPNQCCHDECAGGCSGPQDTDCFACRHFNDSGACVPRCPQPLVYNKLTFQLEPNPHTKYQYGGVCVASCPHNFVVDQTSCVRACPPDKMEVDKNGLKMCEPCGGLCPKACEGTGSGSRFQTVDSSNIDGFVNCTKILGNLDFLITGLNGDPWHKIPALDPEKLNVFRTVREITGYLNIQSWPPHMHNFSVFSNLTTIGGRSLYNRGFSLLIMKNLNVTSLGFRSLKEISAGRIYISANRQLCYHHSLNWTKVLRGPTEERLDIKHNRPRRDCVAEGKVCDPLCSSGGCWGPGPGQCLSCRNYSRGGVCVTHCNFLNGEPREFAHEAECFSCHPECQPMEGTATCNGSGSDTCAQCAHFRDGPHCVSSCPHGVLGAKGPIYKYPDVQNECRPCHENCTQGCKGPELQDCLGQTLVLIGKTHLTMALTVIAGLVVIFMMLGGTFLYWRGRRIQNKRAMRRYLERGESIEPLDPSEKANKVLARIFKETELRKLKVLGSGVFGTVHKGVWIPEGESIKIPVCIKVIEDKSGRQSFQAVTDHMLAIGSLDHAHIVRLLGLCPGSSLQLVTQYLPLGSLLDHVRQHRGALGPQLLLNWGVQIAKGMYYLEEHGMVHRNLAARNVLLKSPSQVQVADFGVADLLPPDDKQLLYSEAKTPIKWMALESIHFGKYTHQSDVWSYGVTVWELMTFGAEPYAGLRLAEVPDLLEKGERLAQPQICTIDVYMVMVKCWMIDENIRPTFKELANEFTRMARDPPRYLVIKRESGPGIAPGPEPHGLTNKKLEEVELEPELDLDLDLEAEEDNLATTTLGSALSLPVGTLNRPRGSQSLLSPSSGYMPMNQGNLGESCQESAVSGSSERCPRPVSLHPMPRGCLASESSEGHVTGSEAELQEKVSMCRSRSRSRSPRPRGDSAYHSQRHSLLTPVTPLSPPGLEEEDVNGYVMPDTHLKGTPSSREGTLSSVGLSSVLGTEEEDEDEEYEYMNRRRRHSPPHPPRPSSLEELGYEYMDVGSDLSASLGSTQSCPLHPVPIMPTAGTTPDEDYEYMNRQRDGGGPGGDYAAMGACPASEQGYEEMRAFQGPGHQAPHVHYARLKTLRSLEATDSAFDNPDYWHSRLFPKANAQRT
As to the kind of experiment: ELISA of HerPBK10 binding to HER2+ cells with competitive inhibitors or sera.
Description: as §1
(ELISA stands for enzyme-linked immunosorbent assay.)

For series [5], the target named is T3, mouse HER3 (Mus musculus, UniProt Q61526).
T3 construct: endogenous in cells; host or cells: 4T1 mouse mammary tumor cells
T3 sequence (Q61526 20-1339): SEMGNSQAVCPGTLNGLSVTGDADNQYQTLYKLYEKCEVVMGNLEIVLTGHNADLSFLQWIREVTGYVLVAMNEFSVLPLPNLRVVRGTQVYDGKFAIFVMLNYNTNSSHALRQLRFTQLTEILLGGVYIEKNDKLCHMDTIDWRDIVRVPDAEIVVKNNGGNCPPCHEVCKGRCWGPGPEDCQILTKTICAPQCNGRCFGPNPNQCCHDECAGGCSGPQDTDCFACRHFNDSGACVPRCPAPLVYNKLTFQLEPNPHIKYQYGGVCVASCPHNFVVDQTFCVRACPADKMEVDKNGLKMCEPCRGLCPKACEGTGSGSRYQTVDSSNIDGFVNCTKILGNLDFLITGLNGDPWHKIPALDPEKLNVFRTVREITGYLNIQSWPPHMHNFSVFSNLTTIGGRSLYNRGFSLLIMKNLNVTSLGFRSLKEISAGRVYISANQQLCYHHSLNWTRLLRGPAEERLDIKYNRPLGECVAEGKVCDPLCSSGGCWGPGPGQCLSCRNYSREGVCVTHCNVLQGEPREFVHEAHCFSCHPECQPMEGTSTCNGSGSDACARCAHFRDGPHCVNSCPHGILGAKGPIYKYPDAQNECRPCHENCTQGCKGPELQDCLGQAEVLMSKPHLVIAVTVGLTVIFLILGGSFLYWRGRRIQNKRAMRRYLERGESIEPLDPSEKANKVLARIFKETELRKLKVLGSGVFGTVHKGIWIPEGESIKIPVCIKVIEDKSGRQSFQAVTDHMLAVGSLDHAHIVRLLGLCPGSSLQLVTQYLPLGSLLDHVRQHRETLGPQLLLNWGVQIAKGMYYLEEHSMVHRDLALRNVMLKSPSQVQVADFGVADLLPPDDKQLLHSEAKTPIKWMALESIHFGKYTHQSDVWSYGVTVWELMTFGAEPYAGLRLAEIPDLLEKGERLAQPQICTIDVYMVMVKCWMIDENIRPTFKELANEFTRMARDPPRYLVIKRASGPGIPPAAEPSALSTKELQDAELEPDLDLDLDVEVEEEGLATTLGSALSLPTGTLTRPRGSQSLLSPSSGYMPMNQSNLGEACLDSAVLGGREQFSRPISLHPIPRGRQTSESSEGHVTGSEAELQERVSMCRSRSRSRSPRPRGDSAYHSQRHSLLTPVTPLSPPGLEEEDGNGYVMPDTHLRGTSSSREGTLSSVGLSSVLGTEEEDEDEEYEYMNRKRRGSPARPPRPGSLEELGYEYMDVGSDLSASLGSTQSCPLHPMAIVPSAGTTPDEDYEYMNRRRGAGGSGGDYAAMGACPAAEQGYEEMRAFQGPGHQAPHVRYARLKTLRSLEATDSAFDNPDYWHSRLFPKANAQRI
Briefly: Binding of HerPBK10 to 4T1 mouse mammary tumor cells. The note with it: soluble HER3 peptide as competitive inhibitor. The source says: FIGS. 13A-13C show the results that HerPBK10 binds to mouse HER3. […] Blue residues indicate amino acid differences. […] N=3. *, p<0.05 compared to HerPBK10 alone

Series [6] deals with T2, HER3. The note with it: cells in culture; cited from earlier work.
In series [7] the test system is HER2+ tumors. Conditions: cited from earlier work.
For series [8] the following is noted: repeat dosing, immune-competent mice; cited from earlier work.
Series [9] relates to human cardiosphere-derived cells (CDCs). Briefly: Human CDC viability. The note with it: 2 or 5 days exposure.

Bounds are passed on as bounds.

For the molecule “PBK10: recombinant protein derived from the adenovirus capsid penton base with decalysine”, the “brain delivery in mice without tumors” value in series [1] is “no detectable brain delivery”.

B1: HerPBK10: receptor binding region of heregulin-α (aa 35-239) fused to adenovirus penton base with decalysine tail (protein)
chain: LPPRLKEMKSQESAAGSKLVLRCETSSEYSSLRFKWFKNGNELNRKNKPQNIKIQKKPGKSELRINKASLADSGEYMCKVISKLGNDSASANITIVESNEIITGMPASTEGAYVSSESPIRISVSTEGANTSSSTSTSTTGTSHLVKCAEKEKTFCVNGGECFMVKDLSNPSRYLCKCQPGFTGARCTENVPMKVQNQEKAEELYMRRAAMYEEGPPPSYESVVSAAPVAAALGSPFDAPLDPPFVPPRYLRPTGGRNSIRYSELAPLFDTTRVYLVDNKSTDVASLNYQNDHSNFLTTVIQNNDYSPGEASTQTINLDDRSHWGGDLKTILHTNMPNVNEFMFTNKFKARVMVSRLPTKDNQVELKYEWVEFTLPEGNYSETMTIDLMNNAIVEHYLKVGRQNGVLESDIGVKFDTRNFRLGFDPVTGLVMPGVYTNEAFHPDIILLPGCGVDFTHSRLSNLLGIRKRQPFQEGFRITYDDLEGGNIPALLDVDAYQASLKDDTEQGGGGAGGSNSSGSGAEENSNAAAAAMQPVEDMNDHAIRGDTFATRAEEKRAEAEAAAEAAAPAAQPEVEKPQKKPVIKPLTEDSKKRSYNLISNDSTFTQYRSWYLAYNYGDPQTGIRSWTLLCTPDVTCGSEQVYWSLPDMMQDPVTFRSTRQISNFPVVGAELLPVHSKSFYNDQAVYSQLIRQFTSLTHVFNRFPENQILARPPAPTITTVSENVPALTDHGTLPLRNSIGGVQRVTITDARRRTCPYVYKALGIVSPRVLSSRTFKKKKKKKKKK
Regarding B1, the “oligonucleotide transport into cells” value in series [2] was “colocalized with the oligonucleotide during binding and uptake”. In addition, in series [3], the “binding to immobilized HER3” value is “bind to an immobilized peptide containing the extracellular domain of human HER3”. Moreover, in [3] (pre-incubation with soluble HER3 peptide), the “binding to immobilized HER3 with HER3 block” value is on record as “inhibited by pre-adsorption of HerPBK10 with free HER3 peptide”. Moreover, the “binding with HER4 peptide or betacellulin” value in [4] (betacellulin 10 μg/mL) is reported as “not inhibited by a HER4 peptide or betacellulin”. In series [4] (heterodimerization-inhibiting antibody), the “binding to cellular HER3 with pertuzumab (Pz)” value is given as “does not prevent HerPBK10 binding to cellular HER3”. Besides, in series [4] (sera from HER2+ patients and age-matched controls), the “binding to HER2+ cells in patient serum” value is listed as “do not prevent HerPBK10 binding to HER2+ cells in culture”. Further, the “binding to human HER3+ cells with HER3 peptide” value in [4] (soluble HER3 peptide as competitive inhibitor) is listed as “inhibits binding”. Besides, in series [5], the “binding to mouse HER3+ cells with HER3 peptide” value is given as “inhibits binding”. Moreover, the “brain delivery in mice without tumors” value in series [1] is given as “show brain localization”. In addition, the “receptor binding with polyclonal antibodies against whole adenovirus” value in series [6] is “do not prevent receptor binding to cells in culture”. For the same molecule, in series [7] (HER2+ tumors in mice), the “dose for tumor growth ablation compared to doxorubicin” value is recorded as above 10 × lower dose. Also, in series [7] (mouse, in vivo), the “effect on heart and liver tissue” value is “sparing heart and liver tissue”; the immunogenicity result was “no detectable immunogenicity”. The neutralizing antibody formation result in [8] is listed as “do not produce detectable neutralizing antibody formation against the protein”. Further, the CDC viability entry in series [9] is “no toxic or growth promoting effect on tumor cells or CDCs”.

The values above are taken from patent publication US12502351B2, “Receptor targeting constructs and uses thereof” (Cedars-Sinai Medical Center, priority 2014, dated 2025).
